One test deals with T1, Halo-KDELR-V5-VN (human) (UniProt P24390).
T1 sequence: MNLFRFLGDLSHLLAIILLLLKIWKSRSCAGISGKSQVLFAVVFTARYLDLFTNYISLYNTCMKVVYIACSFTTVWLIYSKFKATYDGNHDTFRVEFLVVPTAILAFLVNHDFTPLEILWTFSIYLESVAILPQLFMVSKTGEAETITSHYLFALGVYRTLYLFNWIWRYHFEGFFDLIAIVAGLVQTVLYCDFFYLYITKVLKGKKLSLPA

Test [1] has as its target T2, KDELR-mCherry (HT1080 stable) (human) (UniProt P24390).
T2 sequence: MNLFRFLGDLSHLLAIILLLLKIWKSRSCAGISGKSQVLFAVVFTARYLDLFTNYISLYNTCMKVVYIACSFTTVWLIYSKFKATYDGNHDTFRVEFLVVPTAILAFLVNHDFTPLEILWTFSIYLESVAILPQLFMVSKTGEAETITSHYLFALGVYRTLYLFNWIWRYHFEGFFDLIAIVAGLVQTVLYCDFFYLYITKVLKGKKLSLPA

TAEKDEL [TAEKDEL peptide]: the Venus signal of Halo-KDELR-V5-VN with Halo-KDELR-myc-VC (split Venus), 30 min against 0 min with 50 μM TAEKDEL peptide in the test with Halo-KDELR-V5-VN (human) was found to be 2 fold. This molecule had a phosphorylation of STAT3 (Tyr705) in HT1080 cells stably overexpressing KDELR-mCherry, 50 μM TAEKDEL at 37 °C for 30 min, western blot in test [1] of 37%.
